Reference: patent US20220242973A1 (Molecular Partners, published 2022)

Legend:
[1] = target: T1, Human FAP expressed on the cell surface (WI38, CHO-FAP1.9, U87MG cells) (human, UniProt Q12884 1-760); assay: FACS on U87MG cells (FAP on the cell surface), His-tag detected with Penta-His AF647 conjugate, median fluorescence intensity
T1 construct: whole, on cells; Endogenous on WI38 and U87MG cells; from a human FAP cDNA (OriGene) in CHO-FAP1.9 cells; also called hFAP; FAP+ cells
T1 sequence (looked up): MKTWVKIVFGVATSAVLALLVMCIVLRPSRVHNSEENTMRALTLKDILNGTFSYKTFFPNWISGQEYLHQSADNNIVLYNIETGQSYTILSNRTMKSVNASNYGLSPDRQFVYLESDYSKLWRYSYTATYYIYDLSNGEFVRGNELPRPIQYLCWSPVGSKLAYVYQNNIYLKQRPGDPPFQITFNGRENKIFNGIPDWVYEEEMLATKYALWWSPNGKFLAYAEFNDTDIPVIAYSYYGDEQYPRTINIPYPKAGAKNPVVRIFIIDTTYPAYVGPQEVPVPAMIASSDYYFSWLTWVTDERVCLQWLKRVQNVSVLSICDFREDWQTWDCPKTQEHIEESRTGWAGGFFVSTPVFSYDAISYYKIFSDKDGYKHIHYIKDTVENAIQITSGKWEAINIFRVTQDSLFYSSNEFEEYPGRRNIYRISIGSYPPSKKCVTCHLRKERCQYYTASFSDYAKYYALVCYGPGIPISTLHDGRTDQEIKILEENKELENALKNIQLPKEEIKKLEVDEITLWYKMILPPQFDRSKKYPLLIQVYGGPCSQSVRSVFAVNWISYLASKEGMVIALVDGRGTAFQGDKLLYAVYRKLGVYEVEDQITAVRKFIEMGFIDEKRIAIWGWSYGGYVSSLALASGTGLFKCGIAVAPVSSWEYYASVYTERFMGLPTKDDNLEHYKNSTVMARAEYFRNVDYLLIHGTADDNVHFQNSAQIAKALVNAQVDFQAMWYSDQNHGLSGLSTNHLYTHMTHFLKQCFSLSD
Procedure: (§1) In order to determine whether the fusion of a biologically active molecule to a FAP-specific ankyrin repeat domain affects the ability of the molecule to specifically recognize and bind to FAP expressed on the surface of cells, the binding of selected ankyrin repeat fusion proteins to FAP-expressing cells was tested. U87 MG cells and WI38 cells are known to express FAP on the cell surface and they were chosen as representative cells for these experiments. FAP expression on the U87 MG and WI38 cells was confirmed by FACS analysis (data not shown).
(§2) Using multi-well plates, 40,000 cells (either U87MG or WI38) were added per well in 50 μl of PBS. 50 μl of appropriate dilutions (2× dilution steps) of ankyrin repeat fusion protein (DARPin® protein #40 or DARPin® protein #41) was then added to the cells and incubated for 30 minutes on ice. After the ankyrin repeat fusion protein-binding reaction, cells were washed twice with PBS. Direct immunofluorescent detection of the His-tagged ankyrin repeat fusion proteins using Penta-His AF647 conjugate (QIAgen) and determination of live cells using LIVE/DEAD™ Fixable Green Dead Cell Stain Kit (ThermoFisher) were then performed together in one step. […] Acquisition and FACS analysis, including the determination of median fluorescence intensity (MFI), were done within 5 days after staining using an AttuneNxT instrument. […]

[2] = target: T1, Human FAP expressed on the cell surface …; assay: FACS on WI38 cells (FAP on the cell surface), His-tag detected with Penta-His AF647 conjugate, median fluorescence intensity
Procedure: as §1, §2

B1: DARPin® protein #40 (designed binder)
chain: MRGSHHHHHHGSDLGKKLLEAARAGQDDEVRELLKAGADVNAKDYFSHTPLHLAARNGHLKIVEVLLKAGADVNAKDFAGKTPLHLAANEGHLEIVEVLLKAGADVNAQDIFGKTPADIAADAGHEDIAEVLQKAAGSPTPTPTTPTPTPTTPTPTPTGSDLGKKLLEAARAGQDDEVRILLAAGADVNAKDVLGWTPLHLAAFEGHLEIVEVLLKAGADVNAKDKKGWTPLQLAARTGHLEIVEVLLKAGADVNAKDHIGATPLHLAAWQGHPEIVEVLLKAGADVNAQDKSGKTPADLAADAGHEDIAEVLQKAA
notes: Fusion of a serum albumin-specific and a FAP-specific ankyrin repeat domain
EC50 (read off the curve) [1]: ~2 nM | EC50 (read off the curve) [2]: ~2 nM
